Measurements reported in the DeepSol protein solubility set.

test: soluble on expression in E. coli; label from the status in PepcDB or PDB records

Sequence | soluble on expression in E. coli
MAHHHHHHMHTNTMEVVVKHMGAAFSVAVIPVLKDNYTYIIHDKTTNTMAAVDVSADTTPIVDYVERIRRSIDERGAGAMSFSTIFSTHKHWDHAGGNVVLPKALKAAGAFRIIGGVNDNISGVTQTVREGDRLSLGALQVEVLEAPCHTRGHVLYKVYHPQAEKDGVALFTGDTMFVGGIGAFFEGDAAHMCRALRKVYNLHHNATDKEEADRRTFVFPGHEYTVNFLQFARDTIPPAHPDATFIASQLERYKESVAQRKPTVPSTLAEEKRQNLFLRTCDESFVREMKHGDTAETLMQHLYDTCP | not soluble
RRAKALLDFERHDDDELGFRKNDIITIISQKDEHCWVGELNGLRGWFPAKFVEVLDERSKEYSIA | soluble
MATKITINVTNNSTSTQNFFFFQQPAVYSGGPKVYTNSLYSQTLLPYATSGSVLSFTMILQYYAGVQQQVDPPQIGQPSGQLGAIQPIELTPASGGTPTKNTTNMTVDPSLGLSVPVSTDGPQAGSFRIVTPVYDPVLMNYSAGSAVQSLTGAITLSNFVTAQPNTNLDCQPIIKFYVQTGTYTAGTVMNFTSSSVGAALCDATPGFTTFNVSYNPNGTWTVKNMALSQLANGSRGLLEKSSFTTELNAAAQIAEVLNEAGTAVVSTGLAANFLRPVTVTNLTAPGAIIRNRDYQVGPVDGRHLGLTCTDVAGNTAVFD | not soluble
MAFNDCFSLNYPGNPCPGDLIEVFRPGYQHWALYLGDGYVINIAPVDGIPASFTSAKSVFSSKALVKMQLLKDVVGNDTYRINNKYDETYPPLPVEEIIKRSEFVIGQEVAYNLLVNDCEHFVTLLRYGEGVSEQANRAISTVEFVTAAVGVFSFLGLFPKGQRAKYY | not soluble
MGSDKIHHHHHHMKQPLYQQIIDYLQNEIDSGRLPVGAQVPTEKELSAQFNVSRITSKRALTELETQGVIQRHQGKGSFVQAPKHPLHTSLNKVLFLLPFADDLSVGNFYSGLAPTIQAAGLEVFMTSPNFLREKNAADIVNEFAGLVYYAATSNDYLDLLFELALMNFPVVVLDKKIHDLPFATIQSDNFAGGKTATERLIGLGHTKIGYILSGSPALQSVRQRYLGYLQALKEANLAFHTAITETNLLDEHNFKQYFEAHQLTAVVCDNDFSALHCLRNCKNLGIHVPEELSIIGFDDIQAAAFVEPPLTTMAQDFKEMGKLAGEVLLQTMQQDLQIIEDIQVPVTLIERETISTVSK | not soluble
MWLEKFKNKNKETKYRYYEKYKDPLTAKWRRVSVVLNKNGKQSQKEAQRLLNERIEAKLNDKTPTTLKSLTFHVACDEWFQSYIKTSGSKRTTIKTKLSKLNTLKKFVDEDILINKITLSYAQQVFDEMDNKGYVYQVNKDALSIFKNVFEYTRRIYKLQDLEFLKDITLNKRIKSYDEVKAKRNKYLELNEIQSIIKDINTKAQKMHSGIHKRFYLFVALMTEFQALNGMRIGEMLAIQNEDIDFDNKSLNINGTIHWFHDESGGFGVKDTTKTESSYRTIGLSSRSCEILKKAILENKKDSKWNDGYLNRNFVFTNHKGNPMQTERFNKILREAAKDVGIDKEVSSHILRHSHISLLSQQGVSLKAIMDRVGHSDHRTTLSIYSHVTEQMDKDMMNKLEQVKLG | not soluble
MWDKRELTDLAIISAIGIDRTNDSNYVLHLQIINPGNVAGGLQGGGAGDRPPVSVYSIEGNNITEALRKASMKVSRRLYFAHTNLVVINEKLAKEEGLDFVLDNLDRDTEFRTTATFVVAHKTKAENIVKILTPIDKIPSNKVNKTLDFTEAQYGRVVKINIQDVLKTLAANTMAPVIPGYMMIGDDKKGVSMENTQATDPKAILQADGLAVFDKAGYLKYWLEDDESVGAVWLMNKIQHTFINADWGKTKDAVSLQVTHQDTKLVPKMRNGRPYIHVKVSVEGIIDAVKYPFQLSDPKVLAAIEKALNKELEKEISHTVKKIKKNKIDFIGFGDTIYRKYPEQWEKMKDTWDKEYLPELPIDVKAETYIRRTGLRNNPIKHQFKDDLEHHHHHH | not soluble
MTQATPFQLPPLALYVHIPWCVRKCPYCDFNSHAAGPELPEEAYVDALLADLEQDLRHVHGRRLGSIFFGGGTPSLFSAKALGRLLEGVERRVGFADGIEITLEANPGTFEQVKFADYRRLGINRLSIGVQSFQADKLQALGRIHDGAEAVRAADMARQAGFDNFNLDLMHGLPGQSLDDALADLRQALALAPTHLSWYQLTMEPNTVFWSQPPELPEDDILWDIQEAGQALLDEHGYRQYETSAYARDGLRARHNLNYWSFGDFLGIGAGAHAKLSAPDGRIVRTWKTRLPKDYLNPQKAFQAGERPLEAADLPFEFMMNVLRLVDGVPAALYPQRTGQPLAAIADACAAARDAGLLADDPQHLRPSERGQLFLNDLLQHFLP | not soluble
